Experimental data reported in article PMC4098744, “Systematic family‐wide analysis of sodium bicarbonate cotransporter NBCn1/SLC4A7 interactions with PDZ scaffold proteins” (Physiological Reports, 2014).

Target: T1, PSD‐95 third PDZ domain (residue 307–446) (UniProt P78352 307-446)
T1 construct: also called PSD‐95 (3); PSD‐95 (domain 3); source: spotted on a PDZ array membrane (Zhang et al. 2007)
Assay: peptide or protein array; PDZ filter overlay: 96 Class I PDZ domains spotted on a nylon membrane; overlaid with 100 nmol/L GST/NBCn1 (or GST only) in blot buffer (50 mmol/L NaCl, 2% dry milk, 0.1% Tween 20, 10 mmol/L HEPES; pH 7.4) for 1 h at room temperature; detected with HRP-conjugated anti-GST antibody; done three times
Conditions: both partners purified

T1 sequence (P78352 307-446): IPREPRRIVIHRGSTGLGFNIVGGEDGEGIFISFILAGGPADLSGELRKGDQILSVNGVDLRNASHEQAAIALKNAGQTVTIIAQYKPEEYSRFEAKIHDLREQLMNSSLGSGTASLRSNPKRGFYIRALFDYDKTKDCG

B1: GST/NBCn1 fusion protein containing the C‐terminal 26 amino acids of rat NBCn1 (domain or fragment, UniProt Q9R1N3-2 1229-1254, looked up)
chain: PEKPVSVTINFEDEPSKKYMDAETSL
notes: NBCn1 (SLC4A7), rat, the C-terminal 26 amino acids; also called C‐terminal domain of NBCn1 fused to GST; source: prepared as described previously (Lee et al. 2012)
binding result: binds
